One may read the stoichiometry N as the number of molecules, sites or subunits per partner or assembly. Broadly, the Kd is the concentration at which binding is half-saturated.

Experimental findings from PMC7713382, “Structural analysis and insight into effector binding of the niacin-responsive repressor NiaR from Bacillus halodurans” (Scientific Reports, 2020) are described below.

The target in series [1] is T1, BhNiaR (Halalkalibacterium halodurans, UniProt Q9KDJ7).
T1 construct: gene BH1216; full length, 179 residues; E. coli BL21(DE3) star pLysS, pET-28b(+); N-terminal His-tag removed with PreScission protease; residues 7-179 modelled
T1 sequence (Q9KDJ7 1-179): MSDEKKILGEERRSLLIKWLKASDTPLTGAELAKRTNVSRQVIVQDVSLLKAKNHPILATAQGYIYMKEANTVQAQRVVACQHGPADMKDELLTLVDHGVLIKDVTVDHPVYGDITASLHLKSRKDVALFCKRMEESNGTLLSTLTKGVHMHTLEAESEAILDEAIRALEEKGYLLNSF
Briefly: X-ray crystal structure, co-crystallization, […] Å. The format is binding. The conditions noted are these: 2 mM niacin, 0.1 M Tris-HCl pH 8.5, 15% PEG 6000; Zn2+ in site; C-terminal 3H domain, carboxyl coordinates zinc and H-bonds His83, Tyr112 of second subunit in pocket.

Series [2] concerns the target niacin-responsive repressor NiaR from Bacillus halodurans (Bacillus halodurans). The experiment in a line: SEC-MALS; Superdex-200 10/300 GL, 20 mM Tris-HCl pH 8.0, 200 mM NaCl, 1 mM DTT; 10-12 mg/ml, 0.1 ml injected, 0.5 ml/min.
The target of series [3] is T2, BhNiaR (Bacillus halodurans, UniProt Q9KDJ7 1-179).
T2 sequence: T1 sequence (Q9KDJ7 1-179)
The experiment in a line: EMSA; 1 mM niacin; Zn2+-bound protein; EMSA: 20 mM Tris pH 8.0, 100 mM KCl, 1 mM MgCl2, 1 mM DTT, 5% glycerol, +/- 1 mM niacin; 80 nM DNA, 0-3 µM protein; 30 min at room temperature (Methods) or 277. The conditions noted are these: protein: recombinant; tags: N-terminal His-tag removed with PreScission protease; chain copies: 2; label: none (SYBR Green stain); blunt. A general note: A gel shift assay detects complexes by their altered migration in electrophoresis.

Take `O=C(O)c1cccnc1` [niacin]: at BhNiaR [1], the “X-ray crystal structure, co-crystallization, 1.8 Å” value is on record as “A niacin molecule is bound to the C-terminal domain of BhNiaR near the metal-binding site”.

Molecule “niacin-responsive repressor NiaR from Bacillus halodurans (natural protein)” showed a stoichiometry N in series [2] of 2.

B1: nifS-nadB promoter 34-bp cognate DNA (type I) (dsDNA)
DNA 1: CTCATTTACATATGTCTTGACATCTATATTTACA
DNA 2: TGTAAATATAGATGTCAAGACATATGTAAATGAG
Consider B1, for which the Kd with BhNiaR [3] is about 500 nM.
